Key:
hMMP16ECD(E247A)-Fc = biological target: T1, hMMP16ECD(E247A)-Fc (human, UniProt P51512 32-564); experiment: MSD ELISA, plate coated with hMMP16ECD(E247A)-Fc at 2 ug/mL, antibody 0.5 ug/mL
T1 construct: IgK signal peptide upstream (cleaved); also called phMMP16ECD(E247A)-Fc; not shown: human IgG2 Fc protein

hMMP16ECD(E247A)-His = biological target: T2, hMMP16ECD(E247A)-His (human, UniProt P51512 32-564); experiment: colorimetric ELISA, plate coated with hMMP16-his at 3 ug/mL, antibody 0.5 ug/mL
T2 construct: IgK signal peptide upstream (cleaved); also called hMMP16-his; hMMP16-His protein
T2 sequence (P51512 other isoform, or with tags, fused parts or gaps E247A E247A): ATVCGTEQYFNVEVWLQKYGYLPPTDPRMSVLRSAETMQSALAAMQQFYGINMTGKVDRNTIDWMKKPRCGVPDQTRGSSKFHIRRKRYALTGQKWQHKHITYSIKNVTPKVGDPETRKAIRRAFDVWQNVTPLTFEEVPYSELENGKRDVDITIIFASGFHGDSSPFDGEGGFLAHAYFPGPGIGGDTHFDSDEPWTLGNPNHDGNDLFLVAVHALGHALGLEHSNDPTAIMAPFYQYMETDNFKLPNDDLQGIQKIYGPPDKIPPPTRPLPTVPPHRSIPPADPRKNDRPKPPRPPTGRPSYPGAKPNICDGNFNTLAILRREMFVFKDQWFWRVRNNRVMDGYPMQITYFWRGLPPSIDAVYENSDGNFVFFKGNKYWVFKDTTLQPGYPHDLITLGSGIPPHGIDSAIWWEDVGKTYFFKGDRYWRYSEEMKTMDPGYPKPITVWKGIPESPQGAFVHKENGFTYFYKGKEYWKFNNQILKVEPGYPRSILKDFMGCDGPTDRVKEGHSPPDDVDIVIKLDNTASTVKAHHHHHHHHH

T1 sequence (P51512 32-564 E247A): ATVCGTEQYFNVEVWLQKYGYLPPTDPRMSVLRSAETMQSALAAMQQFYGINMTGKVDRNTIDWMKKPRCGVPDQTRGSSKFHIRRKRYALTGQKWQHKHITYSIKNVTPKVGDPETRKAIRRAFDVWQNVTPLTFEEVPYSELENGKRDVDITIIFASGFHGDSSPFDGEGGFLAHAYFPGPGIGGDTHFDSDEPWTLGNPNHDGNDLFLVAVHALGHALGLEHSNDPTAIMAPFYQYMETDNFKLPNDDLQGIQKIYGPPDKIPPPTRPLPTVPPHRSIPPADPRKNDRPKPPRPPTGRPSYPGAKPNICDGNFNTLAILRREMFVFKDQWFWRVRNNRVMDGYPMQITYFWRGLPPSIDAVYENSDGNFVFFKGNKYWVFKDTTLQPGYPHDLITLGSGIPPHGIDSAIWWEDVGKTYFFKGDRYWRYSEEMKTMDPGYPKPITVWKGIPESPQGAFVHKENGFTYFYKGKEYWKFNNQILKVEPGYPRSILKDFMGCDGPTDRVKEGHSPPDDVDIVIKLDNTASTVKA

Row | binding result (hMMP16ECD(E247A)-Fc) | binding result (hMMP16ECD(E247A)-His) | Binder
1 | binds | – | SC73.17 (antibody, V domains shown, Murine hybridoma antibody, first inoculation campaign) VH: EVQLQQSGAELVKPGASVKLSCTASGFNFKDTYMHWVKQRPEQGLEWIGRIDPAIGITEYGPKFQGKATITADTSSNTAYLQLSSLTSEDTAVYYCTRGDFYGNSLDVWGAGTTVTVSS VL: DIVMTQSPATLSVTPGDRVSLSCRASQIISDYLHWYRQKSHESPRLLIKYASQSISGIPSRFSGSGSGSDFTLSINSVEPEDVGVYYCQNGHSFPLTFGTGTKLELK
2 | – | binds | SC73.101 (antibody, V domains shown, Murine hybridoma antibody, second inoculation campaign; mouse IgG2a was used as its isotype control in IHC; also called anti-MMP16 antibody (clone SC73.101)) VH: QIHLVQSGPELKKPGETVKISCKASGYTFTDYSMHWVKQAPGKGLKWMGWINTETGEPTYPDDFKGRFAFSLETSASTAYLQINNLKNEDTATYFCARGYGYDETGTFAYWGQGTLVTVSA VL: not shown

From patent publication US20190022242A1 (AbbVie / Abbott, published 2019)
